Measured values taken from the RNAGym collection of RNA variant scans (doi:10.7554/elife.80360).

B1: HDV Ribozyme (parent)
chain: GGCCGGCAUGGUCCCAGCCUCCUCGCUGGCGCCGGCUGGGCAACAUUCCGAGGGGACCGUCCCCUCGGUAAUGGCGAAUGGGACCCA

Variants of: B1
Assay: self-cleavage, relative activity (ratio to wild type); higher = more cleavage; co-transcriptional

In order of falling self-cleavage:
1. GGCCGGCACGGUCCCGGCCUCCUCGCUGGCGCCGGCUGGGCAACAUUCCGAGGGGACCGUCCCCUCGGUAAUGGCGAAUGGGACCCA [U9C A16G]  1.51
2. GGCCGGCAAGGUCCCAGCCUCCCCGCUGGCGCCGGCUGGGCAACAUUCCGAGGGGACCGUCCCCUCGGUAAUGGCGAAUGGGACCCA [U9A U23C]  1.08
3. GGCCGGCAAGGUCCCAGCCUCCUCGCUGGCGCCGGCUGGGCAACAUUCCGAGGGGACCGUCUCCUCGGUAAUGGCGAAUGGGACCCA [U9A C62U]  1.06
4. GGCCGGCAAGGUCCCAGCCUCCUCGCUGGCGCCGGCUGGGCAACAUUCCGAGGGGACCGUCCCCUCGGUACUGGCGAAUGGGACCCA [U9A A71C]  1.05
5. GGCCGGCAAGGUCCCAGCCUCCUCGCUGGCGCCGGCUGGGCAACAUUCCGAGGGGACCGUCCCCUCGGUAAUGGCGAAUGGGACCGA [U9A C86G]  1.04
6. GGCCGGCUUGGUCCCAGCCUCCUCGCUGGCGCCGGCUGGGCAACAUUCCGAGGGGACCUUCCCCUCGGUAAUGGCGAAUGGGACCCA [A8U G59U]  1.04
7. GGCCGGCAAGGUCCCAGCCUCCUCGCUGGCGCCGGCUGGGCAACAUUCCGAGGGGACCGUCCCCUCGGUAAUGGCGAAUGGGACCCA [U9A]  1.04
8. GGCCGGCACGGUCCCAGCCUCCUCGCUGGCGCCGGCUGGGCAACAUUCCGAGGGGACCGUCCCCUCGGUAAUGGCGAAUGGGACCCA [U9C]  1.04
9. GGCCGGCAAAGUCCCAGCCUCCUCGCUGGCGCCGGCUGGGCAACAUUCCGAGGGGACCGUCCCCUCGGUAAUGGCGAAUGGGACCCA [U9A G10A]  1.03
10. GGCCGGCAAGGUCCCAGCCUCCUCGCUGGCGCCGGCUGGGCAACAUUCCGAGGGGACCGUCCCCUCGGUAAUGGCUAAUGGGACCCA [U9A G76U]  1.02
11. GGCCGGCAAGGUCCCAGCCUCCUCGCUGGCGCCGGCUGGGCAACAUUCCGAGGGGACCGUCCCCUUGGUAAUGGCGAAUGGGACCCA [U9A C66U]  1.01
12. GGCCGGCUGGGUCCCAGCCUCCUCGCUGGCGCCGGCUGGGCAACAUUCCGAGGGGACCGUCCCCUCGGUAAUGGCGAAUGGGACCCA [A8U U9G]  0.997
13. GGCCGGCUUGGUCCCAGCCUCCUCGCUGGCGCCGGCUGGGCAACAUUCCGAGGGGACCGUCCCCUCGGAAAUGGCGAAUGGGACCCA [A8U U69A]  0.962
14. GGCCGGCAAGGUCCCAGCCUCCUCGCUGGCGCCGGCUGGGCAACAUUCCGAGGAGACCGUCCCCUCGGUAAUGGCGAAUGGGACCCA [U9A G54A]  0.943
15. GGCCGGCUUGGUCCCAGCCUCCUCGCUGGCGCCGGCUGGGCAACAUUCCGAGGGGACCGACCCCUCGGUAAUGGCGAAUGGGACCCA [A8U U60A]  0.939
16. GGCCGGCAAGGUCCCAGCCUCCUCGCUGGCGCCGGCUGGGCAACAUUCCGAGGGGACCGUCCCCUCGGUAAUGGCGAAAGGGACCCA [U9A U79A]  0.923
17. GGCCGGCAAGGUCCCAGCCUCCUCGCUGGCGCCGGCUGUGCAACAUUCCGAGGGGACCGUCCCCUCGGUAAUGGCGAAUGGGACCCA [U9A G39U]  0.917
18. GGCCGGCUUGGUCCCAGCCUCCUCGCUGGCGCCGGCUGGGCAACAUUCCGAGGGGACCGUCCCCUCUGUAAUGGCGAAUGGGACCCA [A8U G67U]  0.898
19. GGCCGGCAAGGUCCCAGCCUCCUCGCUGGCGCCGGCUGGGCAACAUUCCGAGGGUACCGUCCCCUCGGUAAUGGCGAAUGGGACCCA [U9A G55U]  0.895
20. GGCCGGCUUGGUCCCAGCCUCCUCGCUGGCGCCGGCUGGACAACAUUCCGAGGGGACCGUCCCCUCGGUAAUGGCGAAUGGGACCCA [A8U G40A]  0.892
21. GGCCGGCAAGGUCCCAGCCUCCUCGCUGGCGCCGGCUGGGCAACAUUCGGAGGGGACCGUCCCCUCGGUAAUGGCGAAUGGGACCCA [U9A C49G]  0.88
22. GGCCGGCUUGGUCCCAGCCUCCUCGCUGGCGCCGGCUGGGCAACAUUCCGAGGGGACCGUCCCCUCAGUAAUGGCGAAUGGGACCCA [A8U G67A]  0.855
23. GGCCGGCAAGGUCCCAGCCUCCUCGCUGGCGCCGGCUGGGAAACAUUCCGAGGGGACCGUCCCCUCGGUAAUGGCGAAUGGGACCCA [U9A C41A]  0.831
24. GGCCGGCAAGGUCCCAGCCUCCUCGCUGGCGCCGGCUGGGCAACAUUCCGAGGGGACCGUCCCCUCCGUAAUGGCGAAUGGGACCCA [U9A G67C]  0.831
25. GGCCGGCUUGGUCCCAGCCUCCUCGCUGGCGCCGGCUGGGCAACAUUCCGACGGGACCGUCCCCUCGGUAAUGGCGAAUGGGACCCA [A8U G52C]  0.779
26. GGCCGGCAAGGUCCCAGCCUCCUCGCUGGCGCCGGCUGGGCAACAUGCCGAGGGGACCGUCCCCUCGGUAAUGGCGAAUGGGACCCA [U9A U47G]  0.772
27. GGCCGGCACGGUCCCAGCCUCCUCGCUGGCGCCGGCUGGGCUACAUUCCGAGGGGACCGUCCCCUCGGUAAUGGCGAAUGGGACCCA [U9C A42U]  0.767
28. GGCCGGCAAGGUCCCAGCCUCCUCGCUGGCGCCGGCUGGGCAACAUUCCGAGGGGACCGUCCCCUCGGUAAUGGCGGAUGGGACCCA [U9A A77G]  0.751
29. GGCCGGCUUGGUCCCAGCCUCCUCGCUGGCGCCGGCUGGGCAACAUUCCGAGGGGACCGUCCCCGCGGUAAUGGCGAAUGGGACCCA [A8U U65G]  0.748
30. GGCCGGCAAGGUCCCAGCCUCCUCGCUGGCGCCGGCUGGGCAACAUUCCGAGGGGACCGUCCCCUCGGUAAUGGCGAAUGGGCCCCA [U9A A83C]  0.731
31. GGCCGGCAAGGUCCCAGCCUCCUCGCUGGCGCCGGCUGGGCAGCAUUCCGAGGGGACCGUCCCCUCGGUAAUGGCGAAUGGGACCCA [U9A A43G]  0.712
32. GGCCGGCUUGGUCCCAGCCUCCUCGCUGGCGCCGGCUGGGCAACAUCCCGAGGGGACCGUCCCCUCGGUAAUGGCGAAUGGGACCCA [A8U U47C]  0.68
33. GGCCGGCAAGGUCCAAGCCUCCUCGCUGGCGCCGGCUGGGCAACAUUCCGAGGGGACCGUCCCCUCGGUAAUGGCGAAUGGGACCCA [U9A C15A]  0.677
34. GGCCGGCAAGGUCCCAGCCUCCUCGCUGGCGCCGGCUGGGCAUCAUUCCGAGGGGACCGUCCCCUCGGUAAUGGCGAAUGGGACCCA [U9A A43U]  0.675
35. GGCCGGCUUGGUCCCAGCCUCCUCGCUGGCGCCGGCUGGGCAACAUUCCGAGGGGACCGUCCCCUCGGCAAUGGCGAAUGGGACCCA [A8U U69C]  0.646
36. GGCCGGCUUGGUCCCAGCCUCCUCGCUGGCGCCGGCUGGGCAACAUUCCGAGGGGACCGUCCCCACGGUAAUGGCGAAUGGGACCCA [A8U U65A]  0.617
37. GGCCGGCAAGGUCCCAGCCUCCUCGCUGGCGCCGGCUGGGCAACAUUCCGAGGGGACCGUCCCCUCGGUAAUGGCGAAUGGGACCAA [U9A C86A]  0.554
38. GGCCGGCAAGGUCCCAGCCUCCUCGCUGGCGCCGGCUGGGCAACAUUCAGAGGGGACCGUCCCCUCGGUAAUGGCGAAUGGGACCCA [U9A C49A]  0.554
39. GGCCGGCACGGUCCCAGCCUCCUCGCUGGCGCCGGCUGGGCAACUUUCCGAGGGGACCGUCCCCUCGGUAAUGGCGAAUGGGACCCA [U9C A45U]  0.554
40. GGCCGGCUUGGUCCCAGCCUCCCCGCUGGCGCCGGCUGGGCAACAUUCCGAGGGGACCGUCCCCUCGGUAAUGGCGAAUGGGACCCA [A8U U23C]  0.532
41. GGCCGGCAAGGUCCCAGCCUCCUCGCUGGCGCCGGCUGGGCAACAUUCCGAGGGGACCGUCCGCUCGGUAAUGGCGAAUGGGACCCA [U9A C63G]  0.502
42. GGCCGGCAAGGACCCAGCCUCCUCGCUGGCGCCGGCUGGGCAACAUUCCGAGGGGACCGUCCCCUCGGUAAUGGCGAAUGGGACCCA [U9A U12A]  0.361
43. GGCCGGCAAGGUCCCAGCCUCCUCGCUGGCGCCGGCUGGGCAACAUUCCGAGGGGACCGUCCCCUCGGUAAUGGCGAAUGCGACCCA [U9A G81C]  0.35
44. GGCCGGCAAGGUCCCAGCCUCCUCGCUGGCGCCGGCUGGCCAACAUUCCGAGGGGACCGUCCCCUCGGUAAUGGCGAAUGGGACCCA [U9A G40C]  0.325
45. GGCCGGCAAGGUCCCAGCCUCCUCGCUGGCCCCGGCUGGGCAACAUUCCGAGGGGACCGUCCCCUCGGUAAUGGCGAAUGGGACCCA [U9A G31C]  0.287
46. GGCCGGCAAGGUCCCAGCCUCCUCGCUGGCGCCGUCUGGGCAACAUUCCGAGGGGACCGUCCCCUCGGUAAUGGCGAAUGGGACCCA [U9A G35U]  0.264
47. GGCCGGCAAGGUCCCAGCCUCCUCGCUGGCGCCAGCUGGGCAACAUUCCGAGGGGACCGUCCCCUCGGUAAUGGCGAAUGGGACCCA [U9A G34A]  0.232
48. GGCCGGCUUGGUCCCAGCCUCCUCGCUGGCGCCGGCGGGGCAACAUUCCGAGGGGACCGUCCCCUCGGUAAUGGCGAAUGGGACCCA [A8U U37G]  0.222
49. GGCCGGCAAGGUCCCAGCCUCCUCGCUGGCGCCGGCUGGGCAACAUUCCGAGGGGACCGUCCCCUCGGUAAUGGCGAAUUGGACCCA [U9A G80U]  0.213
50. GGCCGGCAAGGUCCCAGCCUCCUCGCUGGCGCCGGCGGGGCAACAUUCCGAGGGGACCGUCCCCUCGGUAAUGGCGAAUGGGACCCA [U9A U37G]  0.208
51. GGCCGGCAAGGUCCCAGCCUCCUCGCUGGCGCCGGCUGCGCAACAUUCCGAGGGGACCGUCCCCUCGGUAAUGGCGAAUGGGACCCA [U9A G39C]  0.178
52. GGCCGGCUUGGUCCCAGCCUCCUCGCUGGCGCCGGCUGGGCAACAUUCCGAGGGGACCGUCCCCUCGGUAAUGGCGAAUGUGACCCA [A8U G81U]  0.175
53. GGCCGGCUUGGUCCCAGCCUCCUCGCUGGCGCCGGCUGGGCAACAUUCCGAGGGGACCGUCCCCUCGGUAAUGUCGAAUGGGACCCA [A8U G74U]  0.173
54. GGCCGGCUUGGUCCCAGCCUCCUCGCUGGCGCCGGCUGCGCAACAUUCCGAGGGGACCGUCCCCUCGGUAAUGGCGAAUGGGACCCA [A8U G39C]  0.166
55. GGCCGGCAAGGUCCCAGCCUUCUCGCUGGCGCCGGCUGGGCAACAUUCCGAGGGGACCGUCCCCUCGGUAAUGGCGAAUGGGACCCA [U9A C21U]  0.155
56. GGCCGGCAAGGUCCCAGCCUCCUCGCUAGCGCCGGCUGGGCAACAUUCCGAGGGGACCGUCCCCUCGGUAAUGGCGAAUGGGACCCA [U9A G28A]  0.138
57. GGCCGGCUUGGUCCCAGCCUCCUCGCUGGCGCCGGCUGGGCAACAUUCCGAGGGGACCGUCCCCUCGGUAAUGGCGAAUCGGACCCA [A8U G80C]  0.128
58. GGCCGGCAAGGUCCCAGCUUCCUCGCUGGCGCCGGCUGGGCAACAUUCCGAGGGGACCGUCCCCUCGGUAAUGGCGAAUGGGACCCA [U9A C19U]  0.113
59. GGCCGGCUUGGUCCCAGCCUCCUCGCUGGCGCCGGCUGGGCAACAUUCCGAGGGGACCGUCCCCUCGGUAAUGGCGAAUUGGACCCA [A8U G80U]  0.0715
60. GGCCGGCAAGGUCCCAGCGUCCUCGCUGGCGCCGGCUGGGCAACAUUCCGAGGGGACCGUCCCCUCGGUAAUGGCGAAUGGGACCCA [U9A C19G]  0.0665
61. GGCCGGCUUGGUCCCAGCCUCCUCGCUGGCGCCGCCUGGGCAACAUUCCGAGGGGACCGUCCCCUCGGUAAUGGCGAAUGGGACCCA [A8U G35C]  0.0639
62. GGCCGGCAAGGUCCCAGCCUCCUCGCUGCCGCCGGCUGGGCAACAUUCCGAGGGGACCGUCCCCUCGGUAAUGGCGAAUGGGACCCA [U9A G29C]  0
63. GGCCGGCUUGGUCCCAGCCUCCUCGCUGGCGCCCGCUGGGCAACAUUCCGAGGGGACCGUCCCCUCGGUAAUGGCGAAUGGGACCCA [A8U G34C]  0
64. GGCCGGCAAGGUCCCAGCCUCCUCGCUGGCGCCGGCAGGGCAACAUUCCGAGGGGACCGUCCCCUCGGUAAUGGCGAAUGGGACCCA [U9A U37A]  0
